This note sets out measurements from paper PMC9652321, “Structural basis of human SNAPc recognizing proximal sequence element of snRNA promoter”.

One data set deals with T1, mSNAPc#2 WT (Homo sapiens, UniProt Q5SXM2;Q92966;Q16533;O75971 1-505;1-411;1-268;1-98).
T1 sequence 1: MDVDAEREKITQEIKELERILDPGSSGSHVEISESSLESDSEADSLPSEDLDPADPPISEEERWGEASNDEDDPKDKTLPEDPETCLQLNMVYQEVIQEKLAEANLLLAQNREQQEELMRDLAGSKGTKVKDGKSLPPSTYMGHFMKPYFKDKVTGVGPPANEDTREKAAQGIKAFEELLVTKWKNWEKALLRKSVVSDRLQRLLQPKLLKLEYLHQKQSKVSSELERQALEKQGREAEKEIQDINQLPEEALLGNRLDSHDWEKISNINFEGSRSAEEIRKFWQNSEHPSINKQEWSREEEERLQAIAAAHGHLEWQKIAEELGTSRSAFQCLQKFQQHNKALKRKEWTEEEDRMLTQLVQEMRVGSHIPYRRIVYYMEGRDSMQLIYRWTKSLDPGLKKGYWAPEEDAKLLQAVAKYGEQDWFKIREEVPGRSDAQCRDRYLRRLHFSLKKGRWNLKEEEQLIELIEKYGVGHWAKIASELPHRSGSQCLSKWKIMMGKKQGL
T1 sequence 2: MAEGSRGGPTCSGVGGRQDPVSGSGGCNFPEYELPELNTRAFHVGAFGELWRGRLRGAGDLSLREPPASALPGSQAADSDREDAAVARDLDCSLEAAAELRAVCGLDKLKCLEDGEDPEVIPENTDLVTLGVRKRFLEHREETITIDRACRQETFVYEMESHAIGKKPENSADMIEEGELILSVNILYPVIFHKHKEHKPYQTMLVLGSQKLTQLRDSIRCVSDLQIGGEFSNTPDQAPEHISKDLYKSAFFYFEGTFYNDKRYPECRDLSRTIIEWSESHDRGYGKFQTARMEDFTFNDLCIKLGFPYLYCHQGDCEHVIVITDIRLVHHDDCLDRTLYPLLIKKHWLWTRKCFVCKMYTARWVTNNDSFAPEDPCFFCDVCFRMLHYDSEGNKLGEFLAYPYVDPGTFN
T1 sequence 3: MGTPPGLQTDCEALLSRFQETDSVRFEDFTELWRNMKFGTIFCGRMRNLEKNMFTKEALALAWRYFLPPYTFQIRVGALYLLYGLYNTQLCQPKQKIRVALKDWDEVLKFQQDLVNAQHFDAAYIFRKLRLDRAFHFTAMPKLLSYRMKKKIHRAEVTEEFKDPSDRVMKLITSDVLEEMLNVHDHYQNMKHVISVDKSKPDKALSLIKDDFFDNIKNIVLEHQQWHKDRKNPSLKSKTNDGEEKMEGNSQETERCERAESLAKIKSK
T1 sequence 4: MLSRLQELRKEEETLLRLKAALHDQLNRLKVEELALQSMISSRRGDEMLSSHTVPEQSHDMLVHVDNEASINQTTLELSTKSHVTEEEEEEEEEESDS
Briefly: SPR; protein immobilized; EMSA: 100 mM KCl, 25 mM HEPES-K pH 7.6, 12.5 mM MgCl2, 10 uM ZnCl2, 0.1 mM EDTA, 10% glycerol, 3 mM DTT, 0.5 mM PMSF, 50 nM DNA, RT 30 min; SPR: 100 mM KCl, 12.5 mM MgCl2, 10 uM ZnCl2, 0.1 mM EDTA, 0.05% P20, 25 C. The note with it: protein: recombinant; tags: FLAG N-term SNAP190; 6xHis N-term SNAP43; copies: 1;1;1;1. In general terms: In SPR one partner is held on a chip, and binding of the other changes the refractive index at the surface.

The target of the next data set is T2, mSNAPc#2 2Mu (Homo sapiens, UniProt Q5SXM2;Q92966;Q16533;O75971 1-505;1-411;1-268;1-98, Y389A;R151A).
T2 sequence 1: T1 sequence 1 with Y389A
T2 sequence 2: T1 sequence 2 with R151A
T2 sequence 3: T1 sequence 3
T2 sequence 4: T1 sequence 4
Briefly: SPR; EMSA: 100 mM KCl, 25 mM HEPES-K pH 7.6, 12.5 mM MgCl2, 10 uM ZnCl2, 0.1 mM EDTA, 10% glycerol, 3 mM DTT, 0.5 mM PMSF, 50 nM DNA, RT 30 min; SPR: 100 mM KCl, 12.5 mM MgCl2, 10 uM ZnCl2, 0.1 mM EDTA, 0.05% P20, 25 C. Particulars: protein: recombinant; tags: as P1; copies: 1;1;1;1.

For the next data set, the target named is T3, mSNAPc#2 SNAP50-R151A (Homo sapiens, UniProt Q5SXM2;Q92966;Q16533;O75971 1-505;1-411;1-268;1-98, R151A).
T3 sequence 1: T1 sequence 1
T3 sequence 2: T1 sequence 2 with R151A
T3 sequence 3: T1 sequence 3
T3 sequence 4: T1 sequence 4
Described as above. The note with it: protein: recombinant; tags: as P1; copies: 1;1;1;1.

Where a chain is given by its changes, count along the chain named.

B1: 25 bp hU6-1 PSE (SPR) (dsDNA)
DNA 1: TGCTTACCGTAACTTGAAAGTATTT
DNA 2: AAATACTTTCAAGTTACGGTAAGCA
B1: the results for the Kd in the data set with mSNAPc#2 WT, with mSNAPc#2 2Mu and with mSNAPc#2 SNAP50-R151A were 289 nM, 1620 nM and 1150 nM, respectively.

The Kd is the free concentration of one partner at which half of the binding sites on the other are occupied at equilibrium, for simple one-to-one binding.
